Results from the RNAGym collection of RNA variant scans (doi:10.1073/pnas.2313332121).
This sample holds only a part of the variants without activity.

B1: TPR 5TU (parent)
chain: GGAUCUUCUCGAUCUAACAAAAAAGACAAAUCUGCCACAAAGCUUGAGAGCAUCUUCGGAUGCAGAGGCGGCAGCCUUCGGUGGCGCGAUAGCGCCAACGUUCUCAACUAUGACACGCAAAACGCGUGCUCCGUUGAAUGGAGUUUAUCAUG

Variants of: B1
Experiment: polymerase ribozyme fitness, log enrichment relative to wild type (log ratio); higher = more active; in vitro selection for triplet polymerase activity
In short: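 After PCR construction and transcription, each subunit's mutant library from a heterodimeric triplet polymerase ribozyme was annealed with a biotinylated primer, the partner subunit and triplets. Incubation was frozen, at −7 °C, and extended constructs were gel-excised, bound to streptavidin beads and amplified by RT-PCR, in one selection round done in triplicate. Fitness is the logarithm of a genotype's enrichment divided by that of the wild type, from inverse-variance-weighted replicate averages of Illumina-sequenced inputs and outputs. The base of the logarithm is 2, and genotypes needed ≥10 input reads and ≥1 read per output.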
With GGAUCUUCUCGAUCUAACAAACAAGACAAAUCUGCCUCAAAGCUUGACAGCAUCUUCGGAUGCAGAGGCGGCAGCCUUCGGUGGCGUGAUAGCGCCAACGUUCUCAACUAUGACACGCAAAACACGUGCUCCGCUGAAUGGAGUUUAUCAUG [A22C A37U G48C C87U G124A U134C] the “polymerase ribozyme fitness (log ratio)” value was -4.18.
In the case of GGAUCUUCUCGAUCUAACAAACAAGACUAAUCUGCCACAAAGCUUGAGAGCAUCUUCGGAUGCAGAGGCGGCAGCCUUCGGUGGCGCUAUAGCGCCAACGUUCUCAACUAUGACACGCAAAACGCGUGCUCCGUUGAAUGGAGUUUAUCAUG [A22C A28U G88U], the “polymerase ribozyme fitness (log ratio)” value is reported as no more than -4.2.
With GGAUCUUCUCGAUCUAACAAACAAGACAAAUCUGCCACAAAUCUUGGGAGCAUCUUCGGAUGCAGAGGCGGCAGCGUUCGGUGGCGCGAUGGCGCCAACGUUCUCUACUGUGACACGCAAAACGCGUGCUCCGUUGAAUGGAGUUUAUCAUG [A22C G42U A47G C76G A91G A106U A110G] the “polymerase ribozyme fitness (log ratio)” value was no more than -4.2.
In the case of GGAUCUUCUCGAUCUAACAAACAAGACAAAUCUGCCACAAAGCUUGAGAGCAUCUUCGGGUGCAGAGGCGGCAGCCUUCGGUGGCGCGAUAGCGCGAACGUUCUCAACUAUGAAACGCAAAACGCGUGCUGCGUUGAAUGGAGUUUAUCAUG [A22C A60G C96G C114A C131G], the “polymerase ribozyme fitness (log ratio)” value is reported as no more than -4.2.
For GGAUCUUCUCGAUCUAACAAACAAGACAAAUCUGCCACAAAGCUUGAGAGCAUCUUCGGAUGCAGAGGCGGCAGCCUUCGGUGGCGUGAUAGCGCCAACGUUCUCAACUAUGACACGCAAAAGGCGUGCUCCGUUGAAUGGAGUUUAUCAUG [A22C C87U C123G], the “polymerase ribozyme fitness (log ratio)” value was -0.845.
For GGAUCUUCUCGAUCUAACAAACAAGACAAAUCUGCCCCAAAGCUUGAGAGCAUCUUCGUAUGCAGAGGCGGCAGCCUUCGGUGGCGCGUUAGGGCCAACGUUCUCAACUAUGACACGCUAAACGCGUGCUCCGUUGAAUGGAGUUUAUCAUG [A22C A37C G59U A89U C93G A119U], the “polymerase ribozyme fitness (log ratio)” value was no more than -4.2.
With GGAUCUUCUCGAUCUAACAAACAAGUCAAAUCUGCUACAAAGCUUGAGAGCAUUUUCGGAUGCAGAGGCGGCAGCCUUCGGUGGUGCGAUAGCGCCAUCGUUCUCGACUAUGACACGCAAAACGCGUGCUCCGUUGAAUGGAGUUUAUCAUG [A22C A26U C36U C54U C85U A98U A106G] the “polymerase ribozyme fitness (log ratio)” value was no more than -4.2.
With GGAUCUUCUCGAUCUAACAAACAAAACAAAUCUGCCACAAAGCUUGAGAGCAUCUUCGGAUGCAGAGGCGGCAGCCUUCGGUGGCGCGAUAGUGCCAACGUUCUCAACUAUGACACGAAAAACGCGUGCUCCGUUGAAUGGAGUUUAUCAUG [A22C G25A C93U C118A] the “polymerase ribozyme fitness (log ratio)” value was no more than -4.2.
In the case of GGAUCUUCUCGAUCUAACAAACAAGACAAAUCUGCCACAAAGCUUGAGAGCAUCUUCGGAUGCAGAGGCGGCAGCCUUCGGUGGGGCGAUAGCGCCAACGUUCUCAACUAUGACACGCAAAACGCGUGCUCCGUUGAAUGGAGUUUAUCGUG [A22C C85G A150G], the “polymerase ribozyme fitness (log ratio)” value is reported as -2.71.
With GGAUCUUCUCGAUCUAACAAACAAGACAAAUCUACCACAAAGCUUGAGAGCAUCUUCGGAUGCGGAGGCGGCAGCCUUCGGUGGCGCGAUAGCGCCAACGUUCUCAACUAUGACACGCAAAACGCGUGCUCCGUUGAAUGGAGGUUAUCAAG [A22C G34A A64G U144G U151A] the “polymerase ribozyme fitness (log ratio)” value was -4.04.
For GGAUCUUCUCGAUCUAACAAACAAGACAAAUCUGCCACAAAGCUUGAGAGCAUCUUCGGAUGCAGAGGCGGCAGCCUUCGGUGGGGCGAUAGCGCCAACGUUCUCAACUAUGACACGCAAAACGCGUGCUCCGUUGAAUGGAGUUUAUCAUG [A22C C85G], the “polymerase ribozyme fitness (log ratio)” value was -2.43.
In the case of GGAUCUUCUCGAUCUAACAAACAAGACAAAUCUGCCACAAAGCUUGAGAGCAUCUUCGGAUGCAGAGGCGGCAGCCUUCGGUGGCGCGGUAGCGACAACGUUAUCAACUAUGACACGCAAAACUCGUGCUCCGUUGAAUGGAGUUUAUCAUG [A22C A89G C95A C103A G124U], the “polymerase ribozyme fitness (log ratio)” value is reported as -4.
With GGAUCUUCUCGAUCUAACAAACAAGACAAAUCUGCCACAAAGCUUGAGAGCAUCUUCGGAUGCAGAGGCGGCAGCCUUCGGUGGCGCGAUAGCGCCAGCGUUCUCAACUAUGACACGCAAAACGCGUGCUCCGUUGAAUGGAGUUUAUCAUG [A22C A98G] the “polymerase ribozyme fitness (log ratio)” value was -0.486.
For GGAUCUUCUCGAUCUAACAAACAAGACAAAUCUGCCACUAAGCUUGAGAGCAUCUUCGGAUGCAGAGGCGGCAGCCUUCGGUGGCGCGAUAGCGCCAACGUUCUCAACUAUGACACGCAAAACGCGUGCUCCGUUGAAAGGAGUUUAUCAUG [A22C A39U U139A], the “polymerase ribozyme fitness (log ratio)” value was no more than -4.2.
For GGAUCUUCUCGAUCUAACAAACAAGACAAAUCUGCCACACAGCUUGAGAGCAUCUUCGGAUGCAGAGGCGGCAGCCUUCGGUGGCGCGAUAGCACCAACGUUCUCAACUAUGACACGCGAAACGCGUGCUCCGUUGAAUGGAGUUUAUCAUG [A22C A40C G94A A119G], the “polymerase ribozyme fitness (log ratio)” value was 0.789.
For GGAUCUUCUCGAUCUAACAAACAAGACAAAUCUGCCAUAAAGCUUGAGAGCAUCUUCGGAUGCAGAGGCGGCAGCCUUCGGUCGCGCGAUAGCGCCAACGUUCUCAACUAUGACACGCAAAGCGCGUGCUCCGUUGAAUGUAGUUUAUCAUG [A22C C38U G83C A122G G141U], the “polymerase ribozyme fitness (log ratio)” value was 0.178.
With GGAUCUUCUCGAUCUAACAAACAAGACAAAUCUGCCACAAAGCUUGAGAGCAUCUUCGGUUGCAGUGGCGGCAGCCUUCGGUGGCGCGAUAGUGCCAACCUUCUCAACUAUGACACGCAAAACGCGUGCUCCGUUGAGUGGAGUUUAUAAUG [A22C A60U A66U C93U G100C A138G C149A] the “polymerase ribozyme fitness (log ratio)” value was no more than -4.2.
In the case of GGAUCUUCUCGAUCUAACAAACAAGACAAAUCUGCCACAAAGCUUGAGAGUAUCGUCGGAUGCAGAAGCGGCAGCCUUCGGUGCCGCGAUAGCGCCAACGUUCUCAACUAUGACUCGCAAAACGCGUGCUCCGUUGAAUCGAGUUUAUCAUG [A22C C51U U55G G67A G84C A115U G140C], the “polymerase ribozyme fitness (log ratio)” value is reported as no more than -4.2.
For GGAUCUUCUCGAUCUAACAAACAAGACAAAUCUGCCACAAAGCUUGAGAGCAUCUUCGGAUGCAGAGGUGGCAGCCUUCGGUGGCGCGAUAGUGCCAACGUUCUCAACUAUGACACGCAAAACGCGUGCUCCGUUGAAUGGAGUUUAUCAUG [A22C C69U C93U], the “polymerase ribozyme fitness (log ratio)” value was -1.59.
